Test results reported in US20260209325A1 (SCHOLAR ROCK, published 2026).
Where a chain is given by its changes, count along the chain named. Each block holds one binder with its values, some of them ahead of it.

What was measured:
human GDF-11 = human GDF-11 (human, UniProt O95390 299-407, limits assumed); experiment: plate binding assay, OD 450 nm, one antibody concentration that is not given, on Hu-GDF-11 (method not described in the text)
mouse GDF-11 = mouse GDF-11 (mouse, UniProt Q9Z1W4 297-405, limits assumed); experiment: plate binding assay, OD 450 nm, one antibody concentration that is not given, on Mu-GDF-11 (method not described in the text)
Chain of mouse GDF-11 (Q9Z1W4 297-405 limits assumed): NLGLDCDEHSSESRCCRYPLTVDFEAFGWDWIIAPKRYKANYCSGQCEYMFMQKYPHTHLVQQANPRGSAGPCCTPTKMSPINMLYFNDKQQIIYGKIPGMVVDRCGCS

human pro-myostatin [1] = molecular target: T1, human pro-myostatin (human, UniProt O14793 24-375, biotinylated (in the SPR assay)); experiment: plate binding assay, OD 450 nm, antibody titrated 0.0003 to 100 nM, panel 'Hu-Pro-GDF-8 Plate 2' (method not described in the text)
T1 construct: Disulfide-linked homodimer; also called proGDF8 (human)

murine pro-myostatin [2] = molecular target: T2, murine pro-myostatin (mouse, UniProt O08689 25-376, biotinylated (in the SPR assay)); experiment: plate binding assay, OD 450 nm, antibody titrated 0.0003 to 100 nM, panel 'Mu-Pro-GDF-8 Plate 2' (method not described in the text)
T2 construct: also called proGDF8 (mouse); mouse pro-myostatin

human pro-myostatin [3] = molecular target: T1, human pro-myostatin; experiment: plate binding assay, OD 450 nm, antibody titrated 0.0003 to 100 nM, panel 'Hu-Pro-GDF-8 Plate 3' (method not described in the text)
murine pro-myostatin [4] = molecular target: T2, murine pro-myostatin; experiment: plate binding assay, OD 450 nm, antibody titrated 0.0003 to 100 nM, panel 'Mu-Pro-GDF-8 Plate 3' (method not described in the text)
cyno pro-myostatin [5] = molecular target: T3, cyno pro-myostatin (cynomolgus monkey, Biotinylated for capture in the SPR assay (site not stated). The native form is a disulfide-linked homodimer, partly furin-cleaved; one chain is given.); experiment: plate binding assay, OD 450 nm, antibody titrated 0.0003 to 100 nM, panel 'Cyno-Pro-GDF-8 Plate 3' (method not described in the text)
T3 construct: also called proGDF8 (cynomolgus); cynomolgus monkey pro-myostatin

human pro-myostatin [6] = molecular target: T1, human pro-myostatin; experiment: cell-based or functional assay
[7] = molecular target: T4, recombinant human latent myostatin (human, UniProt O14793 24-375, biotinylated (in the Octet pH assay only)); experiment: cell-based or functional assay
human pro-myostatin [8] = molecular target: T1, human pro-myostatin; experiment: SPR Biacore 8K, biotin-antigen captured
murine pro-myostatin [9] = molecular target: T2, murine pro-myostatin; experiment: SPR Biacore 8K, biotin-antigen captured
cyno pro-myostatin [10] = molecular target: T3, cyno pro-myostatin; experiment: SPR Biacore 8K, biotin-antigen captured
cyno pro-myostatin [11] = molecular target: T3, cyno pro-myostatin; experiment: plate binding assay, absorbance at 450 nm, antibody titrated 100 to about 0.002 nM, panel 'Cyno Pure Pro-GDF-8' (method not described in the text)
human pro-myostatin [12] = molecular target: T1, human pro-myostatin; experiment: plate binding assay, absorbance at 450 nm, antibody titrated 100 to about 0.002 nM, panel 'Human Pure Pro-GDF-8' (method not described in the text)
[13] = molecular target: T4, recombinant human latent myostatin; experiment: cell-based or functional assay; remark: listed apart in the source
human pro-myostatin [14] = molecular target: T1, human pro-myostatin; experiment: Ab KD, summary Table 11; method and antigen not stated there
[15] = molecular target: T4, recombinant human latent myostatin; experiment: BLI (Octet Red384): streptavidin biosensors loaded with biotinylated human latent myostatin, antibody association 300 s, dissociation in PBS at pH 7.4 or pH 5.5
Method: Binding was performed at pH 7.4 and dissociation at pH 5.5 in an Octet Red384@assay. Streptavidin biosensors were baselined in 1x kinetics buffer (KB) (Sartorius) for one minute, then loaded with 100 nM biotinylated human latent myostatin for five minutes, followed by another baseline step of one minute in 1x KB. Binding of test antibodies was performed for five minutes and then dissociation was performed in PBS at either pH 7.4 or pH 5.5 for five minutes. Analysis was performed using a partial fit, in which full dissociation was projected. Kd at pH 5.5 was divided by Kd at pH 7.4 to calculate pH sensitivity.

human pro-myostatin [16] = molecular target: T1, human pro-myostatin; experiment: plate binding assay, OD 450 nm, antibody titrated 0.0003 to 100 nM, panel 'Hu-Pro-GDF-8 Plate 1' (method not described in the text)

Chain of human GDF-11 (O95390 299-407 limits assumed): as the sequence (Q9Z1W4 297-405 limits assumed) above

B2: Ab122 (antibody, human IgG4 S228P, kappa, V domains shown)
VH: QVTLRESGPALVKPTQTLTLTCTVSGGSLSSGGSYVNWIRQPPGKALEWLAMTDWDADNIVYNSALKSRLTISKDTSKNQVVLTMTNMDPVDTATYYCAHRQNVDSYGYWGDAFDIWGQGTMVTVSS
VL: DIVMTQSPDSLAVSLGERATINCKSSQSVLYSADNKNYLAWYQQKPGQPPKLLIYDASSLENGVPDRFSGSGSGTDFTLTISSLQAEDVAVYYCQQGHLFPYSFGGGTKVEIKR
notes: The light chain is printed ending ...NRGE, without the last C
- EC50 (read off the curve) (human pro-myostatin [3]): ~0.5 nM
- EC50 (read off the curve) (murine pro-myostatin [4]): ~0.6 nM
- EC50 (read off the curve) (cyno pro-myostatin [5]): ~0.2 nM

B4: Ab106 (antibody, human IgG4 S228P, kappa, V domains shown)
VH: EVQLVESGGGLVQPGGSLRLSCAASGSAFSSYGMSWVRQAPGKGLELVASINSNGGSTYYPDSVKGRFTISRDNAKNSLYLQMNSLRAEDTAVYYCARDLLVRFLEWAGYYGMDVWGQGTTVTVSS
VL: DIVMTQSPLSLPVTPGEPASISCRSSQSLLHSSGHNFLHWYLQKPGQSPQLLIYEVSNRVSGVPDRFSGSGSGTDFTLKISRVEAEDVGVYYCMQQTQYPPTFGGGTKVEIKR
- IC50 (nM) Pro + Furin (human pro-myostatin [6]): 0.233 nM
- IC50 (nM) Latent + mTLL2 [7]: 0.163 nM
- Kd (human pro-myostatin [8]): 0.112 nM
- koff (human pro-myostatin [8]): 0.000224 s⁻¹
- kon (human pro-myostatin [8]): 2e+06 M⁻¹ s⁻¹
- Kd (murine pro-myostatin [9]): 0.162 nM
- koff (murine pro-myostatin [9]): 0.000317 s⁻¹
- kon (murine pro-myostatin [9]): 1.96e+06 M⁻¹ s⁻¹
- Kd (cyno pro-myostatin [10]): 0.152 nM
- koff (cyno pro-myostatin [10]): 0.000291 s⁻¹
- kon (cyno pro-myostatin [10]): 1.91e+06 M⁻¹ s⁻¹
- EC50 (read off the curve) (cyno pro-myostatin [11]): ~0.2 nM
- EC50 (read off the curve) (human pro-myostatin [12]): ~0.2 nM

B5: Ab132 (antibody, human IgG4 S228P, kappa, V domains shown)
VH: EVQLVESGGGLVQPGGSLRLSCAASGFTFSSYGMSWVRQAPGKGLELVASFTGSGGTYYPDSVKGRFTISRDNAKNSLYLQMNSLRAEDTAVYYCARDLLIRFLEWSHYYGMDVWGQGTTVTVSS
VL: B4 VL with M94Q
- mTLL2 IC50 [13]: 0.144 nM
- Kd (human pro-myostatin [14]): 0.926 nM
- fold difference in off-rate (Kd at pH 5.5 / Kd at pH 7.4) [15]: 24 fold

B6: Ab135 (antibody, human IgG4 S228P, kappa, V domains shown)
VH: B4 VH with R103T, E106R, A108S, G109H
VL: B4 VL
- IC50 (nM) Latent + mTLL2 [7]: 0.154 nM
- EC50 (read off the curve) (cyno pro-myostatin [11]): ~0.3 nM

B7: Ab110 (antibody, human IgG4 S228P, kappa, V domains shown)
VH: QVQLVQSGAEVKKPGASVKVSCKVSEYTFTNYDIHWVRQAPGKGLEWMGGISAYHGNAIYAQKFQGRVTMTEDTSTDTAYMELSSLKSEDTAVYYCARDRVRRDYYNFGMDVWGQGTTVTVSS
VL: DIQMTQSPSSVSASVGDRVTITCRASEDITSYLAWYQQKPGKAPKLLIYDVSSLQSGVPSRFSGSGSGTDFTLTISSLQPEDFANYYCLQHNAYPYGFGGGTKVEIKR
- EC50 (read off the curve) (human pro-myostatin [16]): ~0.5 nM

B8: Ab127 (antibody, human IgG4 S228P, kappa, V domains shown)
VH: EVQLVESGGGLVQPGGSLRLSCTASGFTFGSYPMDWVRQAPGKGLEWVSYISGRGDVTYYADSVKGRFTISRDNAKNTLYLQMNSLRAEDTAVYYCAKVQSPSELLWFGELLPVDYWGQGTLVTVSS
VL: DIQMTQSPSSLSASVGDRVTITCQASQVIKTWLNWYQQKPGKAPKLLIYDASNLQRGVPSRFSGSGSGTDFTFTISSLQPEDIATYYCQQSASTPITFGGGTKVEIKR
- IC50 (nM) Pro + Furin (human pro-myostatin [6]): 0.195 nM
- IC50 (nM) Latent + mTLL2 [7]: 0.14 nM
- Kd (human pro-myostatin [8]): 0.262 nM
- koff (human pro-myostatin [8]): 0.000213 s⁻¹
- kon (human pro-myostatin [8]): 813000 M⁻¹ s⁻¹
- Kd (murine pro-myostatin [9]): 0.325 nM
- koff (murine pro-myostatin [9]): 0.000265 s⁻¹
- kon (murine pro-myostatin [9]): 815000 M⁻¹ s⁻¹
- Kd (cyno pro-myostatin [10]): 0.327 nM
- koff (cyno pro-myostatin [10]): 0.000269 s⁻¹
- kon (cyno pro-myostatin [10]): 821000 M⁻¹ s⁻¹
- binding result (human GDF-11): no binding
- binding result (mouse GDF-11): no binding
- EC50 (read off the curve) (human pro-myostatin [3]): ~0.4 nM
- EC50 (read off the curve) (murine pro-myostatin [4]): ~0.6 nM
- EC50 (read off the curve) (cyno pro-myostatin [5]): ~0.3 nM

Further lines, results first:

- binding result (human GDF-11): no binding
- binding result (mouse GDF-11): no binding
- binding result (human pro-myostatin [1]): binds
- binding result (murine pro-myostatin [2]): binds
B1: Ab119 (antibody, human IgG4 S228P, kappa, V domains shown)
VH: QVQLVQSGAEVKKPGASVKVSCKVSGYTFTKDHIHWVRQAPGKGLEWMGGITPSSGDTIYAQKFQGRVTMTEDTSTDTAYMELSSLKSEDTAVYYCARDHMVRGLPNYYYGMDLWGQGTTVTVSS
VL: DIQMTQSPSSVSASVGDRVTITCRASRDIANYLAWYQQKPGKAPKLLIYAASILQNGVPSRFSGSGSGTDFTLTISSLQPEDFANYYCQQAYTTPPTFGGGTKVEIKR

- binding result (human GDF-11): no binding
- binding result (mouse GDF-11): no binding
- binding result (human pro-myostatin [1]): binds
- binding result (murine pro-myostatin [2]): binds
B3: Ab117 (antibody, human IgG4 S228P, kappa, V domains shown)
VH: QVQLVQSGAEVKKPGASVKVSCKVSGGTFSSHDIHWVRQAPGKGLEWMGGINPSDASTIYAQKFQGRVTMTEDTSTDTAYMELSSLKSEDTAVYYCARDLRGYSYGAETWHFQHWGQGTLVTVSS
VL: DIQMTQSPSSVSASVGDRVTITCRASQYISNYLAWYQQKPGKAPKLLIYETSRLESGVPSRFSGSGSGTDFTLTISSLQPEDFANYYCQQTSSTPLTFGGGTKVEIKR

- binding result (human GDF-11): no binding
- binding result (mouse GDF-11): no binding
- binding result (human pro-myostatin [3]): binds
- binding result (murine pro-myostatin [4]): binds
B9: Ab126 (antibody, human IgG4 S228P, kappa, V domains shown)
VH: EVQLVESGGGLVQPGGSLRLSCTASSFTFSNYAMDWVRQAPGKGLEWVSYISSDASTTYYADSVKGRFTISRDNAKNTLYLQMNSLRAEDTAVYYCARDGGYNPGIFDYWGQGTLVTVSS
VL: DIQMTQSPSSLSASVGDRVTITCQASQSIGRWLNWYQQKPGKAPKLLIYDASILQTGVPSRFSGSGSGTDFTFTISSLQPEDIATYYCQQSFTTPPLTFGGGTKVEIKR

- binding result (human GDF-11): no binding
- binding result (mouse GDF-11): no binding
- EC50 (read off the curve) (human pro-myostatin [1]): ~1 nM
- EC50 (read off the curve) (murine pro-myostatin [2]): ~1 nM
B10: Ab116 (antibody, human IgG4 S228P, kappa, V domains shown)
VH: QVQLVQSGAEVKKPGASVKVSCKVSGFTFSRPAIHWVRQAPGKGLEWMGGINPNAATTIYAQKFQGRVTMTEDTSTDTAYMELSSLKSEDTAVYYCARGRLLREWELRPYDTWGQGTLVTVSS
VL: DIQMTQSPSSVSASVGDRVTITCRASQSIGKSLAWYQQKPGKAPKLLIYSASNLRSGVPSRFSGSGSGTDFTLTISSLQPEDFANYYCQQYRDVPPITFGGGTKVEIKR
